Article PMC8310366

Experiments:
[1] = target: Dengue virus serotype 2 nonstructural protein 1 (DENV NS1), wild type (dengue virus serotype 2 (DENV-2, strain 16681)); experiment: SDS-PAGE under non-heated, non-reduced conditions with immunoblotting
[2] = target: Dengue virus serotype 2 nonstructural protein 1 (DENV NS1), wild type (dengue virus serotype 2 (DENV-2, strain 16681)); experiment: SDS-PAGE under non-heated, non-reduced conditions with Coomassie staining
[3] = target: DENV NS1 V6A mutant (dengue virus serotype 2 (DENV-2, strain 16681)); experiment: SDS-PAGE under non-heated, non-reduced conditions with immunoblotting
[4] = target: DENV NS1 T29A mutant (dengue virus serotype 2 (DENV-2, strain 16681)); experiment: as above
[5] = target: DENV NS1 S233A mutant (dengue virus serotype 2 (DENV-2, strain 16681)); experiment: as above
[6] = target: DENV NS1 T230A mutant (dengue virus serotype 2 (DENV-2, strain 16681)); experiment: as above

For “Dengue virus serotype 2 nonstructural protein 1 (DENV NS1), wild type (natural protein)”, the stoichiometry N [1] was 2 and the stoichiometry N [2] was 2.

DENV NS1 V6A mutant (natural protein) showed a stoichiometry N [3] of 2.

DENV NS1 T29A mutant (natural protein) was tested, and the stoichiometry N [4] was 2.

Work on DENV NS1 S233A mutant (natural protein) yielded a stoichiometry N [5] of 2.

In the case of DENV NS1 T230A mutant (natural protein), the stoichiometry N [6] is reported as 2.
